These results are taken from publication PMC9308819 (Nature Communications, 2022).

First the molecules themselves.
B3: Rep15, full length (natural N101D variant) (natural protein, human, UniProt Q6BDI9 1-236, looked up)
chain: MGQKASQQLALKDSKEVPVVCEVVSEAIVHAAQKLKEYLGFEYPPSKLCPAANTLNEIFLIHFITFCQEKGVDEWLTTTKMTKHQAFLFGADWIWTFWGSDKQIKLQLAVQTLQMSSPPPVESKPCDLSNPESRVEESSWKKSRFDKLEEFCNLIGEDCLGLFIIFGMPGKPKDIRGVVLDSVKSQMVRSHLPGGKAVAQFVLETEDCVFIKELLRNCLSKKDGLREVGKVYISIL
notes: also called full-length Rep15; Rab15 effector protein

The target of test [1] is T1, Rep15, full length (natural N101D variant) (human, UniProt Q6BDI9 1-236, N101D).
T1 sequence: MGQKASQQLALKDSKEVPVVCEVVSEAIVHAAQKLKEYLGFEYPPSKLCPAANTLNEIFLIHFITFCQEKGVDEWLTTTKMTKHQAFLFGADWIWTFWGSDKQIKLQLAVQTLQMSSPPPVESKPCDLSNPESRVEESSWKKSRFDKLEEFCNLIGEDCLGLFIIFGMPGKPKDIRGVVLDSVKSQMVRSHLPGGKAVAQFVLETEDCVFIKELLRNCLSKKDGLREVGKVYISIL
Briefly: ITC. In general terms: ITC needs no label: the signal is the heat of the interaction.

Test [2] deals with Rep15, full length (natural N101D variant) (human) (UniProt Q6BDI9). Briefly: ITC; 500/600 µM GppNHp/GTP Rab titrated into 50/60 µM Rep15; 20 mM Hepes 8.0, 50 mM NaCl, 1 mM MgCl2, 1 mM TCEP; one-site-binding model.
The target of test [3] is T2, Rep15 W140A (human, UniProt Q6BDI9 1-236, N101D | W140A).
T2 sequence: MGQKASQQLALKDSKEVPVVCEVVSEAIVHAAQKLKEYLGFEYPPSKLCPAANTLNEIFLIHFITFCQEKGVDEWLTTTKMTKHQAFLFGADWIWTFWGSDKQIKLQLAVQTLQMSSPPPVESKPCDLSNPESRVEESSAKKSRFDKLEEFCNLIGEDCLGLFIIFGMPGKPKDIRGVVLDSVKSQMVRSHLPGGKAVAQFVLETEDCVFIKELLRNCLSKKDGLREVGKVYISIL
The experiment in a line: ITC.

Test [4] deals with T3, Rep15 Q85A (human, UniProt Q6BDI9 1-236, N101D | Q85A).
T3 sequence: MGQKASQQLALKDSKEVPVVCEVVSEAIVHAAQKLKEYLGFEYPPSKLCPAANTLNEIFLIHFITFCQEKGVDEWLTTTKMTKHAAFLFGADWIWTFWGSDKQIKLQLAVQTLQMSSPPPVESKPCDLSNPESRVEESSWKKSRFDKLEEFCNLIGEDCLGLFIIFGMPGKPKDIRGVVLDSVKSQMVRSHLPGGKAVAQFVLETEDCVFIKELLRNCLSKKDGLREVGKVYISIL
The experiment in a line: ITC.

The target of test [5] is T4, Rep15 D158A (human, UniProt Q6BDI9 1-236, N101D | D158A).
T4 sequence: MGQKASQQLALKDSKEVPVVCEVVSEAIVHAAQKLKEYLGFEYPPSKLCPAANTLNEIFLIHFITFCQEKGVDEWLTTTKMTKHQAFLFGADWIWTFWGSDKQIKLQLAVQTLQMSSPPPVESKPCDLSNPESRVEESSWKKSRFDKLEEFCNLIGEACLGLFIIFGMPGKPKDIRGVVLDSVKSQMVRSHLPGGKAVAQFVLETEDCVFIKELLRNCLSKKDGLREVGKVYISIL
The experiment in a line: ITC.

Test [6] deals with T5, Rep15 L88A (human, UniProt Q6BDI9 1-236, N101D | L88A).
T5 sequence: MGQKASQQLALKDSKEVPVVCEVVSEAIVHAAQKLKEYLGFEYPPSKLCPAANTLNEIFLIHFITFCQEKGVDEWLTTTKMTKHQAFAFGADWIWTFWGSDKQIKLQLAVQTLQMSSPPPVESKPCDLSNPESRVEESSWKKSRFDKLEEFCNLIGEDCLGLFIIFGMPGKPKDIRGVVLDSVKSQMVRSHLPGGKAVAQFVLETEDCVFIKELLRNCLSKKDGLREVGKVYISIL
Briefly: ITC.

A further test deals with T6, Rep15 V135A (human, UniProt Q6BDI9 1-236, N101D | V135A).
T6 construct: source: E. coli BL21 Codon-Plus(DE3)-RIL, purified
T6 sequence: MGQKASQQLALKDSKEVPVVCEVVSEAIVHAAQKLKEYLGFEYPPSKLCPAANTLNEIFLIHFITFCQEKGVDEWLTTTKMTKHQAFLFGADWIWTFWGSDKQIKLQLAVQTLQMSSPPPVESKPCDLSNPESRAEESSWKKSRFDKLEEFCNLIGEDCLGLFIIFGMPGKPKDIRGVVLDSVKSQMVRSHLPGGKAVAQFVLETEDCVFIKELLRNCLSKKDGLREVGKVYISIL
Briefly: ITC; 500/600 µM GppNHp/GTP Rab titrated into 50/60 µM Rep15; 20 mM Hepes 8.0, 50 mM NaCl, 1 mM MgCl2, 1 mM TCEP; one-site-binding model. The settings on record: both partners purified.

Test [7] concerns the target T7, Rep15 W140A (human, UniProt Q6BDI9 1-236, N101D | W140A).
T7 construct: source: E. coli BL21 Codon-Plus(DE3)-RIL, purified
T7 sequence: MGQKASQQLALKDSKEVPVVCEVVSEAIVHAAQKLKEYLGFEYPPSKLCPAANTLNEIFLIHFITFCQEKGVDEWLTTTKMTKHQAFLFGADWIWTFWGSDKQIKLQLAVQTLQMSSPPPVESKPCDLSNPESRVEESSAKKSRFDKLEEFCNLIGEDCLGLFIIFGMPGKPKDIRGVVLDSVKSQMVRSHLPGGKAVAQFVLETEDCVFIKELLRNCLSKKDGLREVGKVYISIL
The description is as above. Conditions: both partners purified.

Test [8] has as its target T8, Rep15 D158A (human, UniProt Q6BDI9 1-236, N101D | D158A).
T8 construct: Limits probably as full-length wild type; source: E. coli BL21 Codon-Plus(DE3)-RIL, purified
T8 sequence: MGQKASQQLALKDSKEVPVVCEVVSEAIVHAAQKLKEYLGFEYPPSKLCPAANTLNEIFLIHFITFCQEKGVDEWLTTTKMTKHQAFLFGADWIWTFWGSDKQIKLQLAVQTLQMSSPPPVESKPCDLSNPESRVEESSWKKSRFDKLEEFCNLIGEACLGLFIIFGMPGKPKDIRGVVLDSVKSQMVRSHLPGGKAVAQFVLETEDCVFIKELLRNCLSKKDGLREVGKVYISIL
Described as above. Conditions: both partners purified.

The target in a further test is T9, Rep15 H84A (human, UniProt Q6BDI9 1-236, N101D | H84A).
T9 construct: Limits probably as full-length wild type; source: E. coli BL21 Codon-Plus(DE3)-RIL, purified
T9 sequence: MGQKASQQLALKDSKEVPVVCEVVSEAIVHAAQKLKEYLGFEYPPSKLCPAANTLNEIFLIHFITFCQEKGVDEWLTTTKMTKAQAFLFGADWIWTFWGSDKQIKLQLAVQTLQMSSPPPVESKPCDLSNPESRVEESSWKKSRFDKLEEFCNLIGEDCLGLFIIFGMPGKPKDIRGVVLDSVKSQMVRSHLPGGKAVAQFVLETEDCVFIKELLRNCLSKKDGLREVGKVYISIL
The test is described as above. The settings on record: both partners purified.

Test [9] has as its target T10, Rep15 Q85A (human, UniProt Q6BDI9 1-236, N101D | Q85A).
T10 construct: Limits probably as full-length wild type; source: E. coli BL21 Codon-Plus(DE3)-RIL, purified
T10 sequence: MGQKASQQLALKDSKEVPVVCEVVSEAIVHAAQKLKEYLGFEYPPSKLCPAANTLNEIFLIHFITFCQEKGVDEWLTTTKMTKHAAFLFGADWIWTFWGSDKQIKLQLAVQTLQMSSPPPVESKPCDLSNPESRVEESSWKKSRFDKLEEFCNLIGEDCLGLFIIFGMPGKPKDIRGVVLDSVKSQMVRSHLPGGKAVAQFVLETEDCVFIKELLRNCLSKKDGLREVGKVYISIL
Described as above. The settings on record: both partners purified.

Test [10] deals with T11, Rep15 L88A (human, UniProt Q6BDI9 1-236, N101D | L88A).
T11 construct: Limits probably as full-length wild type; source: E. coli BL21 Codon-Plus(DE3)-RIL, purified
T11 sequence: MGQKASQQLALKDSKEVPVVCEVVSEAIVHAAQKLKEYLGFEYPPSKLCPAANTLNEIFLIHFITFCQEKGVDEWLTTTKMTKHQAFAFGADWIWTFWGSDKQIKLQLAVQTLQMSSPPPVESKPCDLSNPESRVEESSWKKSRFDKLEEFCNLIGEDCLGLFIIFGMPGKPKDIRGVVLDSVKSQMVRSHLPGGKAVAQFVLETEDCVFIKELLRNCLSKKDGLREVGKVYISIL
The test is described as above. The settings on record: both partners purified.

Test [11] deals with B3. The experiment in a line: stopped-flow fluorescence intensity; association; 0.5 µM mant-GppNHp Rab3A mixed with increasing Rep15 (2–14 µM); 25 °C; 20 mM Hepes 8.0, 50 mM NaCl, 1 mM MgCl2, 2 mM DTE; koff from the intercept, KD as koff/kon. The settings on record: both partners purified.
In test [12] the target is T12, Rab34 Q111L F114Y, purified (human, UniProt Q9BZG1 1-237, Q111L | F114Y).
T12 sequence: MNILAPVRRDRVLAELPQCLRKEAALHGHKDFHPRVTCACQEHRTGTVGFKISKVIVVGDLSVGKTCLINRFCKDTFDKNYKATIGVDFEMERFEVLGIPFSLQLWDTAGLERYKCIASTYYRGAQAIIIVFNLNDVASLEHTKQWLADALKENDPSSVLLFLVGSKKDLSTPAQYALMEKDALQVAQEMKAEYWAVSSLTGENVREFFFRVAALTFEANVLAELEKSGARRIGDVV
Briefly: ITC.

Test [13] addresses T13, Rab34 Q111L 1-237 (dominant active), purified, GTP-loaded (human, UniProt Q9BZG1 1-237, Q111L).
T13 construct: Rab34, human, residues 1-237 with Q111L; also called Rab34_(Q111L_1-237aa)
T13 sequence (looked up): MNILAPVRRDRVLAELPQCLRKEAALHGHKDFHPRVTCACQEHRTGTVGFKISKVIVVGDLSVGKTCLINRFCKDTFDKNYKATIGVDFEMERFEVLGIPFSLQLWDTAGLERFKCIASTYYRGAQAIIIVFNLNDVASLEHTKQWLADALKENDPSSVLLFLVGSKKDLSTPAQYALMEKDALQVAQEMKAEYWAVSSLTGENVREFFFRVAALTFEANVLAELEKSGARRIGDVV
Briefly: ITC; 500/600 µM GppNHp/GTP Rab titrated into 50/60 µM Rep15; 20 mM Hepes 8.0, 50 mM NaCl, 1 mM MgCl2, 1 mM TCEP; one-site-binding model. The settings on record: both partners purified.

B1: Rab3A Y84F, purified (natural protein)
chain: MASATDSRYGQKESSDQNFDYMFKILIIGNSSVGKTSFLFRYADDSFTPAFVSTVGIDFKVKTIYRNDKRIKLQIWDTAGQERFRTITTAYYRGAMGFILMYDITNEESFNAVQDWSTQIKTYSWDNAQVLLVGNKCDMEDERVVSSERGRQLADHLGFEFFEASAKDNINVKQTFERLVDVICEKMSESLDTADPAVTGAKQGPQLSDQQVPPHQDCAC
The term Kd denotes the equilibrium constant for the complex coming apart. Read a high Kd as lower affinity. As to B1, the Kd in test [1] turned out to be 11.1 µM. In [2], this molecule returned a fold reduction in affinity against wild-type Rab3A of 23 fold.

B2: Rab3A, purified, nucleotide-loaded (natural protein, human, UniProt P20336 1-220, looked up)
chain: MASATDSRYGQKESSDQNFDYMFKILIIGNSSVGKTSFLFRYADDSFTPAFVSTVGIDFKVKTIYRNDKRIKLQIWDTAGQERYRTITTAYYRGAMGFILMYDITNEESFNAVQDWSTQIKTYSWDNAQVLLVGNKCDMEDERVVSSERGRQLADHLGFEFFEASAKDNINVKQTFERLVDVICEKMSESLDTADPAVTGAKQGPQLSDQQVPPHQDCAC
notes: Rab3A, human; Loaded with GppNHp (aSEC, ITC) or mant-GppNHp (stopped flow); also called Rab3A_(GppNHp); Rab3A_(mantGppNHp); source: E. coli BL21 Codon-Plus (DE3)-RIL, purified (Ni Sepharose, TEV cleavage, gel filtration)
A word on the koff: it is a measure of how fast the partners let go of each other. A low value points to slow dissociation. A word on the kon: it is the second-order rate constant of association. High values mean faster complex formation, low ones slower complex formation. Consider B2, for which the Kd with Rep15 W140A [3] is 0.4 µM; in the test with Rep15 Q85A [4] it was 18.5 µM; in the test with Rep15 D158A [5] it was 5.59 µM; with Rep15 L88A [6], 9.7 µM; in test [11], 0.44 to 0.53 µM. Moreover, the binding result in the test with Rep15 V135A, with Rep15 W140A [7] and with Rep15 H84A was “binds” in each case. Also, the “fold reduction in affinity against wild-type Rep15” value is 12 fold with Rep15 D158A [8], greater than 30 fold with Rep15 Q85A [9] and 20 fold in the test with Rep15 L88A [10]. Also, the koff in test [11] was determined as 4.29 s⁻¹. For the same molecule, the kon in test [11] amounted to 9.72e+06 M⁻¹ s⁻¹.
For B3, the Kd is 0.0787 µM in test [12] and 0.064 ± 0.032 µM in test [13].
